Target: T1, human thioredoxin-1 (Trx1) protein (human, UniProt P10599 1-105)
T1 construct: also called naked Trx1; antigen
T1 sequence (looked up): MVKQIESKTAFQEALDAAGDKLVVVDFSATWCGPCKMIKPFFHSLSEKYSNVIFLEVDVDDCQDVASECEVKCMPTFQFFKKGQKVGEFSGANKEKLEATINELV
Assay: ELISA on coated Trx1 (100 ng/well), antibody diluted 1/5 from 0.1 µM, fit with Prism

B1: monoclonal antibody B266-1 (antibody, V domains shown)
VH: EVQLQQSGAELVKPGASVKLSCTASGFNIKDTFMHWVKQRPEQGLEWIGRIDPANGNTKYDPKFQGKATITADTSSNTAYLQLSSLTSEDTAVYYCALLQYSAMDYWGQGTSVTVSS
VL: QIVLTQSPAIMSASPGEKVTMTCSASSRISYMYWYQQKPGTSPKRWIYDTSKLASGVPARFSGSGSGTSYSLTISTMEAEDAATYYCHQRSSYPTFGAGTKLELKS
Kd: 0.011 nM

Reference: patent US20200200750A1 (E AND S HEALTHCARE, published 2020)
